Assay [1] concerns the target VEGF (used to stimulate HUVEC cells) (UniProt P15692-4 27-191, limits assumed). The assay can be described thus: cell-based or functional assay.
The target in assay [2] is T1, recombinant human VEGF165 (human, UniProt P15692-4 27-191, biotinylated in the competition assays).
T1 construct: Bought protein; also called hVEGF165; rhVEGF165
The assay can be described thus: ELISA, hVEGF165/hVEGFR2-Fc competition. Also noted: % inhibition: concentration or dose not given beside the values. For orientation: In an ELISA, binding on a coated surface is turned into a signal by an enzyme label.

For assay [3], the target named is T1, recombinant human VEGF165. The assay can be described thus: binding ELISA, coated rhVEGF165.
The target in assay [4] is T1, recombinant human VEGF165. The assay can be described thus: AlphaScreen, hVEGF165/hVEGFR2-Fc competition. Also noted: % inhibition: concentration or dose not given beside the values. On the procedure: (§1) Finally, streptavidin donor beads (20 μg/ml) are added and after 1 hour of incubation in the dark, fluorescence is measured on the Envision microplate reader.
The target of assay [5] is T1, recombinant human VEGF165. The assay can be described thus: AlphaScreen, hVEGF165/hVEGFR2-Fc competition. On the procedure:
as §1
Background: Bead proximity is the source of the signal in Alpha formats.

Assay [6] deals with T1, recombinant human VEGF165. The assay can be described thus: AlphaScreen, hVEGF165/hVEGFR1-Fc competition. Details: % inhibition: concentration or dose not given beside the values. On the procedure:
as §1

Assay [7] has as its target T1, recombinant human VEGF165. The assay can be described thus: SPR Biacore, immobilised hVEGF165, two state reaction model. On the procedure:
Samples are injected for 2 min and allowed to dissociate up to 20 min at a flow rate of 45 μl/min. In between sample injections, the chip surface is regenerated with 100 mM HCl. HBS-EP+(Hepes buffer pH7.4+EDTA) is used as running buffer. Binding curves are fitted using a Two State Reaction model by Biacore T100 Evaluation Software v2.0.1.
^{(a)}KD = kd1/kₐ₁ * (kd2/(kd2 + kₐ₂)) ^{(b)}Curves are fitted using a Two State Reaction model by Biacore T100 Evaluation Software v2.0.1
(In general: Surface plasmon resonance follows binding to a sensor surface in real time, without labels.)

Assay [8] has as its target T2, human DLL4 expressed on cells (CHO-hDLL4; HEK293-hDLL4) (human, UniProt Q9NR61 27-685). The assay can be described thus: cell-based or functional assay.
The target of assay [9] is T3, recombinant human DLL4 (C-terminally His-tagged extracellular domain, R&D Systems) (human, UniProt Q9NR61 25-522, biotinylated in the competition ELISA).
T3 construct: also called rhDLL4; hDLL4
The assay can be described thus: SPR (Biacore), recombinant human DLL4.

Assay [10] addresses T2, human DLL4 expressed on cells …. The assay can be described thus: competition FMAT, labelled hNotch1-Fc on CHO-hDLL4 cells.
Assay [11] concerns the target T4, mouse DLL4 expressed on CHO cells (mouse, UniProt Q9JI71 27-686).
T4 construct: whole, on cells; also called mDLL4; CHO-mDLL4
The assay can be described thus: competition FMAT, labelled hNotch1-Fc on CHO-mDLL4 cells.

For assay [12], the target named is T3, recombinant human DLL4 (C-terminally …). The assay can be described thus: cell-based or functional assay.

We go through two molecules from patent US20140120095A1 (Boehringer Ingelheim, published 2014).

T1 sequence (P15692 other isoform, or with tags, fused parts or gaps): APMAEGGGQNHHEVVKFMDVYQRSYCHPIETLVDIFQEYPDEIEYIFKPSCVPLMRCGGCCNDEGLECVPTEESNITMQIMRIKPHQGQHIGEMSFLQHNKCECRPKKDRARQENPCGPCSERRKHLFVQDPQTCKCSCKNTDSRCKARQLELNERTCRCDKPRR
Sequence of VEGF (used to stimulate HUVEC cells) (P15692 other isoform, or with tags, fused parts or gaps limits assumed): as the sequence (P15692 other isoform, or with tags, fused parts or gaps) above
T4 sequence (Q9JI71 27-686): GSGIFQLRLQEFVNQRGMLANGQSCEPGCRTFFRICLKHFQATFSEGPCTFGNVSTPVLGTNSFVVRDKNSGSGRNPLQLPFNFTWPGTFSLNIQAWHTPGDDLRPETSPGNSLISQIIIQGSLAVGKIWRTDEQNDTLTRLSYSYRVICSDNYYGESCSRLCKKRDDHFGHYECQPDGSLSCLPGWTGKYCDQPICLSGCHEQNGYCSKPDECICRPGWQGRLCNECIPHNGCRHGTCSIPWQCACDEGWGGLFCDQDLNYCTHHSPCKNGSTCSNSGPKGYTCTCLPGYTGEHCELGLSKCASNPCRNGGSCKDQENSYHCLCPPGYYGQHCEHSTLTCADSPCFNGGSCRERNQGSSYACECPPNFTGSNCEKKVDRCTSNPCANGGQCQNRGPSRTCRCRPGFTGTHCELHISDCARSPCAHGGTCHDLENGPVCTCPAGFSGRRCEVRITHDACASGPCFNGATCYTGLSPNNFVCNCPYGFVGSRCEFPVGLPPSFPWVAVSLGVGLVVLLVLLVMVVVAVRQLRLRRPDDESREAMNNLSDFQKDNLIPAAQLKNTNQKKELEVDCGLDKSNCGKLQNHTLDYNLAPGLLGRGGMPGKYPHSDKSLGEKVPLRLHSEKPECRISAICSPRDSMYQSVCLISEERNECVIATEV

B1: VEGFBII023 (VHH, not shown: small tags and cut ends)
chain: EVQLVESGGGLVQTGDSLRLSCEVSGRTFSSYSMGWFRQAQGKEREFVVAISKGGYKYDSVSLEGRFTISKDNAKNTVYLQINSLKPEDTAVYYCASSRAYGSSRLRLADTYEYWGQGTQVTVSSGGGGSGGGGSGGGGSGGGGSGGGGSGGGGSGGGGSGGGGSEVQLVESGGGLVQAGGSLRLSCAASGRTFSNYAMGWFRQAPGKERVLVADISSSGINTYVADAVKGRFTISRDNAKNTVYLQMNSLKPEDTAVYYCAASAWWYSQMARDNYRYWGQGTQVTVSS
notes: Bivalent anti-VEGF VHH; also called VEGFBII23B04-40GS-10E07
Consider B1, for which, in assay [1], the “% inhibition, VEGF HUVEC Erk phosphorylation assay” value came to 100% and the “IC50, VEGF HUVEC Erk phosphorylation assay” value was determined as 0.25 nM. In addition, in assay [2], the “% inhibition” value came to 100% and the IC50 turned out to be 0.213 nM. Further, in assay [3], the EC50 was 0.221 nM. Moreover, in assay [4], the “% inhibition” value was found to be 100% and the half-inhibitory concentration (IC50) is 0.046 nM. Further, in assay [5], the IC50 stood at 0.038 nM. Further, in assay [6], the “% inhibition” value is 87% and the IC50 stood at 0.048 nM. Also, in assay [7], the Kd was 0.69 nM, the ka1 stood at 300000 M⁻¹ s⁻¹, the ka2 came out at 0.024 s⁻¹ and the kd1 was found to be 0.018 s⁻¹. Besides, the kd2 in assay [7] is 0.00027 s⁻¹.

B2: DLLBII039 (VHH, not shown: small tags and cut ends)
VHH: EVQLVESGGGLVQPGGSLRLSCAASGFTIGSYDMSWVRRAPGKGPEWVSSISSGGGSTYYADYVKGRFTISRDNAKNTLYLQMNSLRPEDTAVYYCAADRYIWARQGEYWGAYEYDYWGQGTLVTVSS
For the molecule B2, the “IC50, DLL4-mediated reporter assay (hDLL4)” value in [8] was found to be 16 nM. In assay [9], the dissociation constant Kd came out at 1.8 nM, the koff is 0.00081 s⁻¹ and the kon was 450000 M⁻¹ s⁻¹. In [10], this molecule had an IC50 of 6.2 nM. The molecule also showed an IC50 in assay [11] of 43.8 nM. Further, in assay [12], the “IC50, DLL4-mediated HUVEC proliferation assay” value is 14.4 nM and the “Inhibition (%), DLL4-mediated HUVEC proliferation assay” value is 100%.

For orientation: % inhibition means how much of the control response was suppressed. By IC50 is commonly meant the concentration needed to halve the response being measured. A word on the EC50: it is the concentration giving half of the maximal effect. Broadly, the Kd is the free concentration of one partner at which half of the binding sites on the other are occupied at equilibrium, for simple one-to-one binding. In general, koff refers to the rate constant with which the complex falls apart. By kon is commonly meant the rate constant with which the complex forms.
